Results published in US20130157929A1, “GLUCAGON ANALOGUES” (ZEALAND PHARMA A/S, published 2013).
Starred links: 1 amine or outer side, 2 acyl side, 3 side chain; linkers in the order of their positions; H or OH if unused. Non-standard residues stand in square brackets, D forms with d. Groups on a side chain read outwards from the residue. *: point of attachment. γGlu = O=C(O)[C@H](CCC(=O)[*:2])N[*:1]; Palmitoyl = CCCCCCCCCCCCCCCC(=O)*; hPhe = N[C@@H](CCc1ccccc1)C(=O)O; Aib = CC(C)(N)C(=O)O

B1: Compound 20 (peptide)
peptide: H-H[Aib]GGTFTSDYSKYLDSK([γGlu-Palmitoyl])AAHDFVEWLLSA-NH2
SMILES: CCCCCCCCCCCCCCCC(=O)N[C@@H](CCC(=O)NCCCC[C@H](NC(=O)[C@H](CO)NC(=O)[C@H](CC(=O)O)NC(=O)[C@H](CC(C)C)NC(=O)[C@H](Cc1ccc(O)cc1)NC(=O)[C@H](CCCCN)NC(=O)[C@H](CO)NC(=O)[C@H](Cc1ccc(O)cc1)NC(=O)[C@H](CC(=O)O)NC(=O)[C@H](CO)NC(=O)[C@@H](NC(=O)[C@H](Cc1ccccc1)NC(=O)[C@@H](NC(=O)CNC(=O)CNC(=O)C(C)(C)NC(=O)[C@@H](N)Cc1c[nH]cn1)[C@@H](C)O)[C@@H](C)O)C(=O)N[C@@H](C)C(=O)N[C@@H](C)C(=O)N[C@@H](Cc1c[nH]cn1)C(=O)N[C@@H](CC(=O)O)C(=O)N[C@@H](Cc1ccccc1)C(=O)N[C@H](C(=O)N[C@@H](CCC(=O)O)C(=O)N[C@@H](Cc1c[nH]c2ccccc12)C(=O)N[C@@H](CC(C)C)C(=O)N[C@@H](CC(C)C)C(=O)N[C@@H](CO)C(=O)N[C@@H](C)C(N)=O)C(C)C)C(=O)O
B2: Compound 15 (peptide)
peptide: H-H[Aib]WGTFTSDYSKYLDSK([γGlu-Palmitoyl])AAHDFVEWLLSA-NH2
SMILES: CCCCCCCCCCCCCCCC(=O)N[C@@H](CCC(=O)NCCCC[C@H](NC(=O)[C@H](CO)NC(=O)[C@H](CC(=O)O)NC(=O)[C@H](CC(C)C)NC(=O)[C@H](Cc1ccc(O)cc1)NC(=O)[C@H](CCCCN)NC(=O)[C@H](CO)NC(=O)[C@H](Cc1ccc(O)cc1)NC(=O)[C@H](CC(=O)O)NC(=O)[C@H](CO)NC(=O)[C@@H](NC(=O)[C@H](Cc1ccccc1)NC(=O)[C@@H](NC(=O)CNC(=O)[C@H](Cc1c[nH]c2ccccc12)NC(=O)C(C)(C)NC(=O)[C@@H](N)Cc1c[nH]cn1)[C@@H](C)O)[C@@H](C)O)C(=O)N[C@@H](C)C(=O)N[C@@H](C)C(=O)N[C@@H](Cc1c[nH]cn1)C(=O)N[C@@H](CC(=O)O)C(=O)N[C@@H](Cc1ccccc1)C(=O)N[C@H](C(=O)N[C@@H](CCC(=O)O)C(=O)N[C@@H](Cc1c[nH]c2ccccc12)C(=O)N[C@@H](CC(C)C)C(=O)N[C@@H](CC(C)C)C(=O)N[C@@H](CO)C(=O)N[C@@H](C)C(N)=O)C(C)C)C(=O)O
B3: Compound 13 (peptide)
peptide: H-H[Aib]LGTFTSDYSKYLDSK([γGlu-Palmitoyl])AAHDFVEWLLSA-NH2
SMILES: CCCCCCCCCCCCCCCC(=O)N[C@@H](CCC(=O)NCCCC[C@H](NC(=O)[C@H](CO)NC(=O)[C@H](CC(=O)O)NC(=O)[C@H](CC(C)C)NC(=O)[C@H](Cc1ccc(O)cc1)NC(=O)[C@H](CCCCN)NC(=O)[C@H](CO)NC(=O)[C@H](Cc1ccc(O)cc1)NC(=O)[C@H](CC(=O)O)NC(=O)[C@H](CO)NC(=O)[C@@H](NC(=O)[C@H](Cc1ccccc1)NC(=O)[C@@H](NC(=O)CNC(=O)[C@H](CC(C)C)NC(=O)C(C)(C)NC(=O)[C@@H](N)Cc1c[nH]cn1)[C@@H](C)O)[C@@H](C)O)C(=O)N[C@@H](C)C(=O)N[C@@H](C)C(=O)N[C@@H](Cc1c[nH]cn1)C(=O)N[C@@H](CC(=O)O)C(=O)N[C@@H](Cc1ccccc1)C(=O)N[C@H](C(=O)N[C@@H](CCC(=O)O)C(=O)N[C@@H](Cc1c[nH]c2ccccc12)C(=O)N[C@@H](CC(C)C)C(=O)N[C@@H](CC(C)C)C(=O)N[C@@H](CO)C(=O)N[C@@H](C)C(N)=O)C(C)C)C(=O)O
B4: Compound 14 (peptide)
peptide: H-H[Aib][hPhe]GTFTSDYSKYLDSK([γGlu-Palmitoyl])AAHDFVEWLLSA-NH2
SMILES: CCCCCCCCCCCCCCCC(=O)N[C@@H](CCC(=O)NCCCC[C@H](NC(=O)[C@H](CO)NC(=O)[C@H](CC(=O)O)NC(=O)[C@H](CC(C)C)NC(=O)[C@H](Cc1ccc(O)cc1)NC(=O)[C@H](CCCCN)NC(=O)[C@H](CO)NC(=O)[C@H](Cc1ccc(O)cc1)NC(=O)[C@H](CC(=O)O)NC(=O)[C@H](CO)NC(=O)[C@@H](NC(=O)[C@H](Cc1ccccc1)NC(=O)[C@@H](NC(=O)CNC(=O)[C@H](CCc1ccccc1)NC(=O)C(C)(C)NC(=O)[C@@H](N)Cc1c[nH]cn1)[C@@H](C)O)[C@@H](C)O)C(=O)N[C@@H](C)C(=O)N[C@@H](C)C(=O)N[C@@H](Cc1c[nH]cn1)C(=O)N[C@@H](CC(=O)O)C(=O)N[C@@H](Cc1ccccc1)C(=O)N[C@H](C(=O)N[C@@H](CCC(=O)O)C(=O)N[C@@H](Cc1c[nH]c2ccccc12)C(=O)N[C@@H](CC(C)C)C(=O)N[C@@H](CC(C)C)C(=O)N[C@@H](CO)C(=O)N[C@@H](C)C(N)=O)C(C)C)C(=O)O
B5: Compound 16 (peptide)
peptide: H-H[Aib]VGTFTSDYSKYLDSK([γGlu-Palmitoyl])AAHDFVEWLLSA-NH2
SMILES: CCCCCCCCCCCCCCCC(=O)N[C@@H](CCC(=O)NCCCC[C@H](NC(=O)[C@H](CO)NC(=O)[C@H](CC(=O)O)NC(=O)[C@H](CC(C)C)NC(=O)[C@H](Cc1ccc(O)cc1)NC(=O)[C@H](CCCCN)NC(=O)[C@H](CO)NC(=O)[C@H](Cc1ccc(O)cc1)NC(=O)[C@H](CC(=O)O)NC(=O)[C@H](CO)NC(=O)[C@@H](NC(=O)[C@H](Cc1ccccc1)NC(=O)[C@@H](NC(=O)CNC(=O)[C@@H](NC(=O)C(C)(C)NC(=O)[C@@H](N)Cc1c[nH]cn1)C(C)C)[C@@H](C)O)[C@@H](C)O)C(=O)N[C@@H](C)C(=O)N[C@@H](C)C(=O)N[C@@H](Cc1c[nH]cn1)C(=O)N[C@@H](CC(=O)O)C(=O)N[C@@H](Cc1ccccc1)C(=O)N[C@H](C(=O)N[C@@H](CCC(=O)O)C(=O)N[C@@H](Cc1c[nH]c2ccccc12)C(=O)N[C@@H](CC(C)C)C(=O)N[C@@H](CC(C)C)C(=O)N[C@@H](CO)C(=O)N[C@@H](C)C(N)=O)C(C)C)C(=O)O
B6: Compound 17 (peptide)
peptide: H-H[Aib]AGTFTSDYSKYLDSK([γGlu-Palmitoyl])AAHDFVEWLLSA-NH2
SMILES: CCCCCCCCCCCCCCCC(=O)N[C@@H](CCC(=O)NCCCC[C@H](NC(=O)[C@H](CO)NC(=O)[C@H](CC(=O)O)NC(=O)[C@H](CC(C)C)NC(=O)[C@H](Cc1ccc(O)cc1)NC(=O)[C@H](CCCCN)NC(=O)[C@H](CO)NC(=O)[C@H](Cc1ccc(O)cc1)NC(=O)[C@H](CC(=O)O)NC(=O)[C@H](CO)NC(=O)[C@@H](NC(=O)[C@H](Cc1ccccc1)NC(=O)[C@@H](NC(=O)CNC(=O)[C@H](C)NC(=O)C(C)(C)NC(=O)[C@@H](N)Cc1c[nH]cn1)[C@@H](C)O)[C@@H](C)O)C(=O)N[C@@H](C)C(=O)N[C@@H](C)C(=O)N[C@@H](Cc1c[nH]cn1)C(=O)N[C@@H](CC(=O)O)C(=O)N[C@@H](Cc1ccccc1)C(=O)N[C@H](C(=O)N[C@@H](CCC(=O)O)C(=O)N[C@@H](Cc1c[nH]c2ccccc12)C(=O)N[C@@H](CC(C)C)C(=O)N[C@@H](CC(C)C)C(=O)N[C@@H](CO)C(=O)N[C@@H](C)C(N)=O)C(C)C)C(=O)O
B7: Compound 19 (peptide)
peptide: H-H[Aib]IGTFTSDYSKYLDSK([γGlu-Palmitoyl])AAHDFVEWLLSA-NH2
SMILES: CCCCCCCCCCCCCCCC(=O)N[C@@H](CCC(=O)NCCCC[C@H](NC(=O)[C@H](CO)NC(=O)[C@H](CC(=O)O)NC(=O)[C@H](CC(C)C)NC(=O)[C@H](Cc1ccc(O)cc1)NC(=O)[C@H](CCCCN)NC(=O)[C@H](CO)NC(=O)[C@H](Cc1ccc(O)cc1)NC(=O)[C@H](CC(=O)O)NC(=O)[C@H](CO)NC(=O)[C@@H](NC(=O)[C@H](Cc1ccccc1)NC(=O)[C@@H](NC(=O)CNC(=O)[C@@H](NC(=O)C(C)(C)NC(=O)[C@@H](N)Cc1c[nH]cn1)[C@@H](C)CC)[C@@H](C)O)[C@@H](C)O)C(=O)N[C@@H](C)C(=O)N[C@@H](C)C(=O)N[C@@H](Cc1c[nH]cn1)C(=O)N[C@@H](CC(=O)O)C(=O)N[C@@H](Cc1ccccc1)C(=O)N[C@H](C(=O)N[C@@H](CCC(=O)O)C(=O)N[C@@H](Cc1c[nH]c2ccccc12)C(=O)N[C@@H](CC(C)C)C(=O)N[C@@H](CC(C)C)C(=O)N[C@@H](CO)C(=O)N[C@@H](C)C(N)=O)C(C)C)C(=O)O
B8: Compound 18 (peptide)
peptide: H-H[Aib]SGTFTSDYSKYLDSK([γGlu-Palmitoyl])AAHDFVEWLLSA-NH2
SMILES: CCCCCCCCCCCCCCCC(=O)N[C@@H](CCC(=O)NCCCC[C@H](NC(=O)[C@H](CO)NC(=O)[C@H](CC(=O)O)NC(=O)[C@H](CC(C)C)NC(=O)[C@H](Cc1ccc(O)cc1)NC(=O)[C@H](CCCCN)NC(=O)[C@H](CO)NC(=O)[C@H](Cc1ccc(O)cc1)NC(=O)[C@H](CC(=O)O)NC(=O)[C@H](CO)NC(=O)[C@@H](NC(=O)[C@H](Cc1ccccc1)NC(=O)[C@@H](NC(=O)CNC(=O)[C@H](CO)NC(=O)C(C)(C)NC(=O)[C@@H](N)Cc1c[nH]cn1)[C@@H](C)O)[C@@H](C)O)C(=O)N[C@@H](C)C(=O)N[C@@H](C)C(=O)N[C@@H](Cc1c[nH]cn1)C(=O)N[C@@H](CC(=O)O)C(=O)N[C@@H](Cc1ccccc1)C(=O)N[C@H](C(=O)N[C@@H](CCC(=O)O)C(=O)N[C@@H](Cc1c[nH]c2ccccc12)C(=O)N[C@@H](CC(C)C)C(=O)N[C@@H](CC(C)C)C(=O)N[C@@H](CO)C(=O)N[C@@H](C)C(N)=O)C(C)C)C(=O)O

Biological target: human glucagon-like peptide 1 receptor (GLP-1R) (human, UniProt P43220)
Experiment: cell-based or functional assay

| EC50 (nM) GLP-1R, cAMP formation [nM] | EC50 (nM) GLP-1R, cAMP formation, earlier determination [nM] | Binder |
| --- | --- | --- |
| 0.21 | 0.89 | B1 |
| 5.8 | – | B2 |
| 0.28 | – | B3 |
| 3.5 | – | B4 |
| 0.13 | – | B5 |
| 0.09 | – | B6 |
| 0.16 | – | B7 |
| 0.09 | – | B8 |

Biological target: human glucagon receptor (glucagon-R) (human, UniProt P47871)
Experiment: cell-based or functional assay

| EC50 (nM) GluR, cAMP formation [nM] | EC50 (nM) GluR, cAMP formation, earlier determination [nM] | Binder |
| --- | --- | --- |
| 26 | – | B1 |
| 43 | – | B2 |
| 11 | – | B3 |
| 8.9 | – | B4 |
| 3 | – | B5 |
| 3.4 | – | B6 |
| 0.74 | 3 | B7 |
| 8 | – | B8 |
